In patent publication US10877024B2, “Methods of determining interferon having direct inhibitory effects on tumors and uses thereof” (SUPERLAB FAR EAST LIMITED, priority 2015, dated 2020):

Experiments:
[1] = test system: human hepatoma SMMC-7721 xenografts; test: rSIFN-co on human hepatoma SMMC-7721 xenografts in nude mice; conditions: for TV(mm^3, mean ± SD) (D 0): day 0; for % Inhibition / T/C (%) / TV(mm^3, mean ± SD) (D 21): day 21
Procedure: The test article was used without dilution. It was stored at 4° C. until thawed for injection.
The animals used were 4-6 weeks old male BALB/cA nu/nu mice, weighing about 23±2 g, obtained from the Shanghai Institute of Materia Medica (Shanghai, P.R. China). […] Animals were housed 6 to a cage. They were ear-marked with ear hole punch identification. The room temperature was maintained at 25° C.±+1° C. Lighting was set at 12 hr on and 12 hr off. Food was provided ad libitum. City tap water, filtered with a 5 micrometer (μm) filter, was provided to the animals ad libitum via water bottles.
The test article was administered in a volume of 0.05 ml-0.15 ml per mouse per treatment, depending on the group to which the animal was assigned. […] Normal saline was injected in a volume of 0.15 ml per mouse, which was used as vehicle control.
Animals were assigned to treatment groups randomly. Initially, all animals were placed in one large animal cage. For assignment to the study, they were later separately housed, with 6 animals per cage per treatment group. Groups 1 and 2 are Control groups in which the animals were each administered the vehicle every other day after the first treatment. […] Tumor growth was monitored by measuring the length and width of each tumor twice a week during the course of the study. Each animal was also weighed twice a week during the course of the study.
Before commencement of this study, the xenografts were passaged twice in nude mice. Under sterile conditions, well-grown tumors were cut into 1.5 mm^3 fragments and one such fragment was injected by trocar needle into the right flank of each study animal. […] Individual tumor size (length and width) was measured twice per week with microcalipers. Tumor volume (V) was calculated using the formula: V=(length×width^2)/2. Individual relative tumor volume (RTV) was calculated using the formula: RTV=Vt/V0, where Vt is the tumor volume on the day of measurement and V0 is the tumor volume on the day of first treatment. Therapeutic effect of the test article or control article was expressed in terms of T/C (%), using the formula: T/C (%)=(mean RTV of the treated group/mean RTV of the control group)×100%; and in terms of % Inhibition, using the formula: % Inhibition=100%−T/C %.

[2] = test system: DKK-3; test: qPCR of tumor suppressor gene; type: cell-based, human; conditions: A549 cells, 10 mcg/ml, 24 hr
Procedure: After 24 hr of treatment, total cellular mRNA was isolated using TRIZOL Reagent, and cDNA was synthesized, and further subjected to qPRC using specific primers for DKK3, KLF4 and BATF2.
The experiment was conducted in triplicate and normalized with the mock control group.

[3] = test system: CD24; test: qPCR of Wnt signaling downstream gene in A549 cells; type: cell-based, human; conditions: 10 μg/ml, 24 hr
Procedure: (§1) After 24 hr of treatment, cellular total mRNA was isolated using TRIZOL Reagent and cDNA was synthesized and further subjected to qPCR, using specific primers of four (4) Wnt signaling downstream genes, Axin2, CD24, Survivin and ID2. Experiments were conducted in triplicate and normalized with the Mock group.
(§2) Total mRNA was isolated using TRIZOL Reagent (Invitrogen, Carlsbad, Calif.) according to the manufacturer's instructions. Complementary DNA (cDNA) was synthesized using a RT-PCR Kit (Cat #:FSQ-101, TOYOBO, Japan) according to the manufacturer's instructions and then subjected to qPCR with a SYBR Green PCR kit (Cat #: QPK-201, TOYOBO, Japan). The primers of the four Wnt pathway target genes were as follows: Axin2 sense primer: 5′-[…]-3′ (SEQ ID NO:8) and antisense primer: 5′-[…]-3′(SEQ ID NO: 9); CD24 sense primer: 5′-[…]-3′ (SEQ ID NO: 10) and antisense primer: 5′-[…]-3′(SEQ ID NO: 11); Survivin sense primer: 5′-[…]-3′ (SEQ ID NO: 12) and antisense primer: 5′-[…]-3′ (SEQ ID NO: 13) and ID2 sense primer: 5′-[…]-3′ (SEQ ID NO: 14) and antisense primer: 5′-[…]-3′(SEQ ID NO: 15).
(§3) The amplification protocol consisted of incubations at 95° C. for 1 minute, 40 cycles (95° C. for 15 seconds, 60° C. for 15 seconds, 72° C. for 30 seconds). Incorporation of the SYBR Green dye into PCR products was monitored in real time with a Bio-Rad Detection System and subsequently analyzed using Bio-Rad CFX manager 2.1 software. The samples were pooled for each condition and run in duplicate. Treated samples were compared to Mock using the 2^−ΔΔCt method and plotted as fold change. GAPDH was used as the normalization control.

[4] = test system: Axin2; test: as above; type: cell-based, human; conditions: 10 μg/ml, 24 hr
Procedure: as §1, §2, §3

[5] = test system: ID2; test: as above; type: cell-based, human; conditions: 10 μg/ml, 24 hr
Procedure: as §1, §2, §3

[6] = test system: Survivin; test: as above; type: cell-based, human; conditions: 10 μg/ml, 24 hr
Procedure: as §1, §2, §3

[7] = test system: beta-catenin/TCF mediated transcriptional activity; test: Beta-catenin/TCF transcription reporter assay (TOPFlash); type: cell-based, human; conditions: 10 mcg/ml, 24 hours
Procedure: The effect of rSIFN-co on Wnt/Beta-catenin signaling in vitro was determined. Cancer cells were plated in 96-well plates (at 1×10^4 cells per well), and incubated for 12 hours, after which they were transiently transfected with 100 ng TOPFlash (Millipore Corporation, Billerica, Mass., USA). […] After interferon treatment for 24 hours, luciferase assay was performed using the Dual Luciferase Assay System kit according to the manufacturer's protocols (Cat #:E1960, Promega). Relative luciferase activity was reported as a ratio of firefly/renilla luciferase activity. Experiments were performed in triplicate.

[8] = test system: FZD6; test: qPCR of Wnt-related receptor mRNA; type: cell-based, human; conditions: 10 μg/ml, 24 hr
Procedure: The regulation of LRP6/FZD6 by rSIFN-co was investigated. This was conducted by qPCR as performed in Example 9. […] After 24 hr of treatment, total cellular mRNA was isolated using TRIZOL Reagent, and cDNA was subjected to qPCR using specific primers of LRP6 and FZD6. The primers used were: LRP6 sense primer: 5′-[…]-3′ (SEQ ID NO: 4) and antisense primer: 5′-[…]-3′ (SEQ ID NO: 5), and FZD6 sense primer: 5′-[…]-3′ (SEQ ID NO: 6) and antisense primer: 5′-[…]-3′ (SEQ ID NO: 7). Experiments were conducted in triplicate and normalized with the Mock control group. Results were recorded as relative mRNA level of either LRP6 or FZD6 relative to GAPDH.

[9] = test system: STAT1 (Tyr701), STAT2 (Tyr690), STAT3(Tyr705); test: STAT phosphorylation by Western Blot; type: cell-based, human; conditions: A549 cells and Hela cells, 10 μg/ml, 0-240 minutes
Excerpt: After treatment, the cells were collected, cellular proteins were extracted and loaded onto SDS-PAGE […] for Western Blot analysis to observe the phosphorylation of STAT1 (Tyr701), STAT2 (Tyr690), and STAT3(Tyr705). GAPDH was used as a loading control.
The primary antibodies used were: STAT1 (1:1000, Cat #: 9175S), Tyr701 phosphorylated-STAT1 (1:1000, Cat #: 9167S), STAT2 (1:500, Cat #4594), Tyr690 phosphorylated-STAT2 (1:1000, Cat #: 441S), STAT3 (1:1000, Cat #: 9132), Tyr705 phosphorylated-STAT3 (1:1000, Cat #: 9145S). Anti-mouse (Cat #:sc-2005) or rabbit (Cat #: sc-2004) or goat (Cat #: sc-2020) HRP-conjugated secondary antibodies (Santa Cruz Technology, Santa Cruz, Calif.) were used at concentrations of 1:2000. Blots were visualized by use of Luminescence/Fluorescence Imaging LAS4000 System (GE Healthcare Life Sciences, USA) with super signal west pico chemiluminescnet substrate kit (Thermo Scientific, USA).

[10] = 0.05 mg/mouse i.t. every other day
[11] = 0.10 mg/mouse i.t. every other day
[12] = 0.15 mg/mouse i.t. every other day

B1: rSIFN-co: Recombinant super-compound interferon; amino acid sequence SEQ ID NO: 1 (same as INFERGEN), encoded by novel nucleotide sequence SEQ ID NO: 2 (protein)
chain: MCDLPQTHSLGNRRALILLAQMRRISPFSCLKDRHDFGFPQEEFDGNQFQKAQAISVLHEMIQQTFNLFSTKDSSAAWDESLLEKFYTELYQQLNDLEACVIQEVGVEETPLMNVDSILAVKKYFQRITLYLTEKKYSPCAWEVVRAEIMRSFSLSTNLQERLRRKE
modifications: Amino acid sequence of recombinant interferon
- TV(mm^3, mean ± SD) (D 0) [1, 10]: 124 ± 26 mm^3
- % Inhibition [1, 10]: 48.01%
- T/C (%) [1, 10]: 51.99%
- TV(mm^3, mean ± SD) (D 21) [1, 10]: 592 ± 139 mm^3
- TV(mm^3, mean ± SD) (D 0) [1, 11]: 124 ± 15 mm^3
- % Inhibition [1, 11]: 52.20%
- T/C (%) [1, 11]: 47.80%
- TV(mm^3, mean ± SD) (D 21) [1, 11]: 573 ± 287 mm^3
- TV(mm^3, mean ± SD) (D 0) [1, 12]: 123 ± 20 mm^3
- % Inhibition [1, 12]: 56.80%
- T/C (%) [1, 12]: 43.20%
- TV(mm^3, mean ± SD) (D 21) [1, 12]: 505 ± 226 mm^3
- relative mRNA expression level of DKK-3 [2]: dramatically increased
- relative expression level of CD24 mRNA (Mock control set at 1) [3]: about 0.4
- relative expression level of Axin2 mRNA (Mock control set at 1) [4]: about 0.4
- relative expression level of ID2 mRNA (Mock control set at 1) [5]: about 0.4
- relative expression level of Survivin mRNA (Mock control set at 1) [6]: about 0.4
- Firefly/Renilla ratio ([7]; A549 cells, Control about 310): about 100
- Firefly/Renilla ratio ([7]; H460 cells, Control about 450): about 280
- Firefly/Renilla ratio ([7]; H1299 cells, Control about 800): about 500
- Firefly/Renilla ratio ([7]; HT-29 cells, Control about 300): about 200
- Firefly/Renilla ratio ([7]; SW620 cells, Control about 1500): less than 100
- relative expression of FZD6 mRNA ([8]; A549 cells): significant reduction
- relative expression of FZD6 mRNA ([8]; H460 cells): significant reduction
- relative expression of FZD6 mRNA ([8]; HT-29 cells): significant reduction
- relative expression of FZD6 mRNA ([8]; SW620 cells): significant reduction
- phosphorylation patterns for STAT1, STAT2 and STAT3 (JAK/STATs signaling level) [9]: no different from that mediated by IFN alpha-2b
